“Also recorded” adds a separate entry of the source.

For test [1], the system named is CCR4 positive and negative cells. Briefly: CCR4 expression of CCR4 positive and negative cells exposed to cytokines. It is filed as cell-based. The settings on record: cytokines of the cervical microenvironment. An excerpt:
CCR4 positive and negative cells were exposed to a number of cytokines (TNF-α, TGF-β, IFN-γ, IL-4 and IL-10) known to be present in the cervical microenvironment and for which receptors were likely to be present on the tumour cells.

For test [2], the system named is C41 cervical cancer cell line. Briefly: CCR4 expression on C41 cells after cytokine stimulation (FACS). The format is cell-based, human. Particulars: 20 ng/ml, 24 h, versus unstimulated cells. The protocol:
Dashed line: isotype control; grey line CCR4 expression; bold line; CCR4 expression after cytokine stimulation.
The most common cytokines present in a tumour are IL-10, TGF-β, FGF, TNF-α. The C41 cervical cancer cell line was stimulated in culture with different cytokines (IL-10, TNF-α, TGF-β, FGF; 20 ng/ml) for 24 h. The expression of CCR4 was then determined by FACS analysis.

The target in a further test is T1, CCR4 (Homo sapiens, UniProt P51679).
T1 construct: The cell line C-41 expressed cell surface CCR4 in a constitutive manner; host or cells: C-41 cervical cancer cell line
T1 sequence (P51679 1-360): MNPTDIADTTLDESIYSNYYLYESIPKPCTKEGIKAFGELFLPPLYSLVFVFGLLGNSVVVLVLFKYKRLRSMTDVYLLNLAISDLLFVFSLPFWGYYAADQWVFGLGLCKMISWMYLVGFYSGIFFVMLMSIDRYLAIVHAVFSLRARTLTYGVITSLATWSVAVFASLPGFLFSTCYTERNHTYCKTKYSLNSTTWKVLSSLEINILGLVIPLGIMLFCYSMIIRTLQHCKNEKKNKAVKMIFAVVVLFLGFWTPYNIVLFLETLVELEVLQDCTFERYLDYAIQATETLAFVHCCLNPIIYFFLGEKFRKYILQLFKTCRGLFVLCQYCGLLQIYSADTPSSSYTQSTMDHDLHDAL
As to the kind of experiment: CCR4 expression/internalization on C-41 cells after ligand stimulation (FACS). It is filed as cell-based. Particulars: stimulation with 100 ng/ml ligand. The protocol:
Values are the mean±SD of 10 determinations,*P <0.05, **P<0.01.
(§1) The cervical cancer cell line C-41 (ATCC, Rockville, Md, USA) was cultured in DMEM medium supplemented with 10% FCS. […] Proliferation and migration were assessed using methods described previously.
To investigate the biological significance of CCR4 expression on cervical cancer cells a number of cervical cancer cell lines (CaSki, Me180, Hela-Ohio, Hela-S3, Siha, C33A, C41-1) were screened for CCR4 expression.

Test [3] concerns C-41 cervical cancer cell line. Briefly: trans-well migration assay of C-41 cells towards CCR4 ligands. The format is cell-based, human. The settings on record: for chemotactic response of C-41 cells: trans-well migration assay. The protocol:
as §1
To investigate the biological significance of CCR4 expression on cervical cancer cells a number of cervical cancer cell lines (CaSki, Me180, Hela-Ohio, Hela-S3, Siha, C33A, C41-1) were screened for CCR4 expression. The cell line C-41 expressed cell surface CCR4 in a constitutive manner (FIG. 6A). Using FACS analysis it was shown that C-41 cells expressed cell surface CCR4. […] Following stimulation with 100 ng/ml CCL22, cell surface CCR4 protein was internalized on C-41 cells after 2 hours and returned back to the surface after 3 hours (FIG. 6B).

Test [4] deals with C-41 cervical cancer cell line. Briefly: C-41 growth/proliferation under suboptimal conditions after ligand stimulation. The format is cell-based, human. Particulars: 6 days.

As for TNF-α, the “influence on CCR4 expression” value in test [1] is on record as “None of these influenced CCR4 expression”.

On to TGF-β, for which the “CCR4 expression on C41 cells after cytokine stimulation” value in test [2] is “upregulated in terms of percentage of positive cells”. Further, the “influence on CCR4 expression” value in test [1] was “None of these influenced CCR4 expression”.

B1: CCL17: chemokine ligand of CCR4 (PeproTech) used to stimulate C-41 cells (protein, UniProt Q92583 24-94, looked up)
C-C motif chemokine 17: ARGTNVGRECCLEYFKGAIPLRKLKTWYQTSEDCSRDAIVFVTVQGRAICSDPNNKRVKNAVKYLQSLERS
Turning to B1, the “cell surface CCR4 returned back to the surface after” value with CCR4 stood at 3 h. Moreover, the “migration of C-41 cells” value in test [3] (10 ng/ml), in test [3] (100 ng/ml) and in test [3] (1000 ng/ml) was “induced significant migration” throughout. In addition, the “chemotactic response of C-41 cells” value in test [3] is given as “typical bell-shaped chemotactic response”. Also, the figures for the “C-41 cell growth / proliferation” value in test [4] (1 ng/ml), in test [4] (10 ng/ml) and in test [4] (100 ng/ml) were “not”, “significant growth increase; also recorded: increased proliferation” and “significant growth increase; also recorded: increased proliferation”, respectively.

B2: IL-10: cytokine commonly present in a tumour, used to stimulate C41 cells (protein, UniProt P22301 19-178, looked up)
Interleukin-10: SPGQGTQSENSCTHFPGNLPNMLRDLRDAFSRVKTFFQMKDQLDNLLLKESLLEDFKGYLGCQALSEMIQFYLEEVMPQAENQDPDIKAHVNSLGENLKTLRLRLRRCHRFLPCENKSKAVEQVKNAFNKLQEKGIYKAMSEFDIFINYIEAYMTMKIRN
Take B2: in test [2], the “CCR4 expression on C41 cells after cytokine stimulation” value was “upregulated in terms of percentage of positive cells”. The “influence on CCR4 expression” value in test [1] is listed as “None of these influenced CCR4 expression”.

B3: IL-4: cytokine known to be present in the cervical microenvironment (protein, UniProt P05112 25-153, looked up)
Interleukin-4: HKCDITLQEIIKTLNSLTEQKTLCTELTVTDIFAASKNTTEKETFCRAATVLRQFYSHHEKDTRCLGATAQQFHRHKQLIRFLKRLDRNLWGLAGLNSCPVKEANQSTLENFLERLKTIMREKYSKCSS
Turning to B3, the “influence on CCR4 expression” value in test [1] is reported as “None of these influenced CCR4 expression”.

B4: CCL22: chemokine ligand of CCR4 (PeproTech) used to stimulate C-41 cells (protein, UniProt O00626 25-93, looked up)
C-C motif chemokine 22: GPYGANMEDSVCCRDYVRYRLPLRVVKHFYWTSDSCPRPGVVLLTFRDKEICADPRVPWVKMILNKLSQ
With B4, in the test with CCR4, the “cell surface CCR4 protein internalized on C-41 cells after” value was found to be 2 h. Besides, in the test with CCR4, the “cell surface CCR4 returned back to the surface after” value was 3 h. The “chemotactic response of C-41 cells” value in test [3] is given as “typical bell-shaped chemotactic response”. Besides, the “C-41 cell growth / proliferation” value in test [4] (1 ng/ml) is given as “significant increased growth; also recorded: simulated C-41 cell growth”; in test [4] (10 ng/ml), “not”; in test [4] (100 ng/ml), “significant increased growth; also recorded: simulated C-41 cell growth”.

B5: IFN-γ: cytokine known to be present in the cervical microenvironment (protein, UniProt P01579 24-161, looked up)
Interferon gamma: QDPYVKEAENLKKYFNAGHSDVADNGTLFLGILKNWKEESDRKIMQSQIVSFYFKLFKNFKDDQSIQKSVETIKEDMNVKFFNSNKKKRDDFEKLTNYSVTDLNVQRKAIHELIQVMAELSPAAKTGKRKRSQMLFRG
As for B5, the “influence on CCR4 expression” value in test [1] is “None of these influenced CCR4 expression”.

The values are drawn from patent US10261099B2, “Cancer marker and therapeutic target” (Cancer Research Technology Ltd., priority 2007, dated 2019).
